Usually EC50 stands for the concentration that produces a half-maximal response. For orientation: Kd means the constant that tells how readily two partners part at equilibrium. Low readings indicate higher affinity, high ones lower affinity. By koff is commonly meant the rate constant with which the complex falls apart. High values mean a short-lived complex, low ones a long-lived complex. By kon is commonly meant a measure of how fast the partners come together. The low end stands for slower complex formation, the high end for faster complex formation. Broadly, the IC50 is the concentration that inhibits the measured activity by half. High values mean lower potency, low ones higher potency.

These results are taken from US20190233498A1 (H LUNDBECK A S, published 2019).

Substitutions are numbered along the chain they refer to.

B1: anti-PACAP antibody Ab11 (antibody, human IgG1, kappa, N297A, V domains shown)
VH: QSVEESGGRLVTPGTPLTLTCTASGFSLSRYAMGWVRQAPGKGLEWIGDISTYGTTDYASWVNGRFTISRTSTTVTLKMTSLTTEDTATYFCARDYWLSLWGQGTLVTVSS
VL: AAVLTQTPSPVSAAVGGTVTIKCQSSQSVYDNNALAWYQQKPGQPPKLLIYAASNLASGVPDRFSGSGSGTQFTLTISGVQCDDAATYYCLGGYDDAADNAFGGGTEVVVKR
notes: full-length rabbit/human chimeric antibody
B2: anti-PACAP antibody Ab7 (antibody, human IgG1, kappa, N297A, V domains shown)
VH: B1 VH with F26I, S27D, R30G, Q103P
VL: B1 VL with N55T, D62S, S65K, S78N, A97P
notes: as for B1
B3: anti-PACAP antibody Ab12 (antibody, human IgG1, kappa, N297A, V domains shown)
VH: B1 VH with R30S, N63Y
VL: B1 VL with N55T, D62S, Q72E, D95Y, A97P
notes: as for B1
B4: anti-PACAP antibody Ab13 (antibody, human IgG1, kappa, N297A, V domains shown)
VH: QSVEESGGRLVTPGTPLTLTCTVSGFSLSSAAMNWVRQAPGKGLEWIGIIDNTAGTYYAPWAKGRFTISKTSSTTVDLKMTSPTTEDTATYFCARGGGEFFIWGPGTLVTVSS
VL: AQVLTQTPSSVSAAVGGTVTINCQSSQSVHDGSYLSWYQQKPGQPPNFLIYQASNLASGVPSRFKGSGSGTQFTLTISDLECDDAATYYCAGGYSSNICGFGGGTEVVVKR
notes: as for B1
B5: anti-PACAP antibody Ab3 (antibody, human IgG1, kappa, N297A, V domains shown)
VH: QEQLVESGGGLVQPEGSLTLTCTASGFSFSSSDYMCWVRQAPGKGLEWIGCIDAGSSGDTYFASWAKGRFTISKTSSTTVTLQMTSLTAADTATYFCARHLYGSITFAFGLWGQGTLVTVSS
VL: AAVLTQTPSPVSAAVGGTVTINCQASQSIGSDLAWYQQKPGQPPKLLIYDASTLASGVPSRFSGSGSGTQFTLTISGVQCDDAATYYCQGTYYSSGWYTAFGGGTEVVVKR
notes: as for B1
B6: anti-PACAP antibody Ab14 (antibody, human IgG1, kappa, N297A, V domains shown)
VH: QSVEASGGRLVTPGTPLTLTCTVSGFSLSSAAMNWVRQAPGKGLEWIGFIEYSKNIVYASWAKGRFTISKVSSTTVDLKMTSPTTEDTATYFCARGGGEFFIWGQGTLVTVSS
VL: AQVLTQTPSSVSAAVGGTVTINCQSSQSVYSNNRLSYYQQKPGQPPKLLIYEASSLAYGVPSRFKGSGSGTQFTLTISDLECDDAATYYCAGAYSNSIYSFGGGTEVVVKR
notes: as for B1

The first assay has as its target T1, human PACAP38 (human, not fully specified; C-terminal lysine is amidated; N-terminal or C-terminal biotin in the HTRF and PC-12 cell binding assays).
T1 construct: synthetic peptide, bought; also called huPACAP (1-38)
T1 peptide: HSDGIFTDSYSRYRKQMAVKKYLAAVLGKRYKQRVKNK
Briefly: HTRF binding, biotin-PACAP38. Here is the method:
In parallel, 10 μl of an antibody dilution series (highest final concentration of 100 nM) were incubated with 10 μl of N-terminal or C-terminal biotinylated PACAP38 (35 nM final) alone, or in combination with either PACAP27 (350 nM final) or VIP (350 nM final), i.e., 10× PACAP27 or 10×VIP, respectively, in a HTRF plate. 20 μl of Eu³⁺ cryptate labeled anti-hu Fc donor and 20 μl of d2-labeled streptavidin acceptor were added to each well and incubated for 1 hour at room temperature. Fluorescence was measured at 620 and 665 nm with a delay of 300 μsec.
EC₅₀ values, i.e. the concentration of an antibody that yields a response halfway between the baseline and the maximum value within a specified time period, were computed for each antibody based upon their binding curves and are shown in Table 1 below. […] A humanized form of antibody Ab1 was produced and is identified by an appended “.H”, i.e., Ab1.H, and it also bound PACAP38 with high affinity.
On the technique in general: Time-resolved FRET reads energy transfer from a long-lived donor to a nearby acceptor.
Turning to B1, the EC50 was 0.00053 µM.
The same measure, in the same setting: then B2, with 0.00045 µM; and B3, with 0.00051 µM.
The same measure, in the same setting: the same measure for B4: 0.00048 µM; for B5: 0.00045 µM.
The same measure, in the same setting: the same measure for B6: 0.00057 µM.

The target in a further assay is T2, human VIP (human).
T2 construct: also called Vasoactive Intestinal Peptide
T2 peptide: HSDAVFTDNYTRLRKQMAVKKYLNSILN
As to the kind of experiment: SPR, Ab immobilised. On the procedure: [The procedure below names another target; the source says it served here with some conditions changed.] (§1) Binding affinities of monoclonal antibodies for human PACAP were estimated using SPR on the PROTEON™ XPR36 (Bio-Rad, Hercules, Calif.). Antibody was immobilized to the surface of general amine coupling (“GLC” or “GLM”) Chips (Bio-Rad, Hercules, Calif.). A dilution series of human PACAP38 (SEQ ID NO: 1241) prepared in 1×PBST Buffer (4.3 mM Na Phosphate, 1.4 mM K Phosphate, 135 mM NaCl, 2.7 mM KCl 0.05% Polysorbate-20) purchased from Teknova (Cat# P1192, Teknova, Hollister, Calif.) and supplemented with 0.25 M arginine (from J.T. BAKER®), 0.2 mg/ml BSA (Jackson Immuno Research Labs, West Grove, Pa.), and 0.005% sodium azide (VWR International, Radnor, Pa.) with the pH adjusted to 7 was used to query the antibodies. Antigen (ranging from 1.23 nM to 100 nM) was typically run sequentially with association times of 2-4 minutes and dissociation times of 3-120 minutes grouped with the PROTEON™ Manager Software (v3.1.0.6 (Bio-Rad, Hercules, Calif.)) and fitted using a 1:1 Langmuir binding model. Surfaces were regenerated between analyte queries using 0.85% Phosphoric Acid.
A general note: Surface plasmon resonance follows binding to a sensor surface in real time, without labels.
In turn, B1 returned a Kd of 0.23 µM, a koff of 0.047 s⁻¹ and a kon of 200000 M⁻¹ s⁻¹.
Take B2: the Kd worked out at 0.034 µM, the koff was determined as 0.0088 s⁻¹ and the kon is 260000 M⁻¹ s⁻¹.
Taken in the same sequence, the figures for B3 were 0.0082 µM, 0.0024 s⁻¹ and 290000 M⁻¹ s⁻¹.
The matching figures for B4: 0.14 µM, 0.046 s⁻¹ and 320000 M⁻¹ s⁻¹.
Consider B5, for which binding was characterised by a dissociation constant (Kd) of 100000 µM and the koff came out at 0.1 s⁻¹.
B6 came in with a Kd of 0.25 µM, a koff of 0.067 s⁻¹ and a kon of 270000 M⁻¹ s⁻¹.

A further assay concerns the target T3, human PACAP27 (human, C-terminal leucine is amidated; 125I-labelled in Example 10).
T3 peptide: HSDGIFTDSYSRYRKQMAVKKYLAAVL
Briefly: SPR, Ab immobilised. On the procedure: [The procedure below names another target; the source says it served here with some conditions changed.] as §1
In the case of B1, the Kd worked out at 0.42 nM, the koff is 0.00011 s⁻¹ and the kon was 260000 M⁻¹ s⁻¹.
The matching figures for B2: 0.2 nM, 4.5e-05 s⁻¹ and 230000 M⁻¹ s⁻¹.
The matching figures for B3: 0.07 nM, 2.1e-05 s⁻¹ and 290000 M⁻¹ s⁻¹.
For B4, binding was put at a Kd of 0.12 nM, the koff was found to be 6.6e-05 s⁻¹ and the kon came out at 540000 M⁻¹ s⁻¹.
Molecule B5 yielded a Kd of 0.37 nM, a koff of 0.00014 s⁻¹ and an association rate constant (kon) of 370000 M⁻¹ s⁻¹.
In turn, B6 gave a Kd of 0.074 nM, a koff of 2e-05 s⁻¹ and an on-rate (kon) of 270000 M⁻¹ s⁻¹.

In the next assay the target is T1, human PACAP38. As to the kind of experiment: SPR, Ab immobilised. Here is the method: as §1
For the molecule B1, binding was put at a Kd of 0.11 nM, the koff was determined as 3.1e-05 s⁻¹ and the kon came to 270000 M⁻¹ s⁻¹.
For the molecule B2, the Kd is ≤ 0.056 nM, the koff is ≤ 1e-05 s⁻¹ and the kon was found to be 180000 M⁻¹ s⁻¹.
Taken in the same sequence, the figures for B3 were ≤ 0.032 nM, ≤ 1e-05 s⁻¹ and 310000 M⁻¹ s⁻¹.
The matching figures for B4: 0.064 nM, 2.7e-05 s⁻¹ and 420000 M⁻¹ s⁻¹.
Take B5: the Kd turned out to be 0.16 nM, the koff turned out to be 4.2e-05 s⁻¹ and the kon turned out to be 260000 M⁻¹ s⁻¹.
Taken in the same sequence, the figures for B6 were ≤ 0.031 nM, ≤ 1e-05 s⁻¹ and 320000 M⁻¹ s⁻¹.

A further assay addresses T1, human PACAP38. As to the kind of experiment: cell-based or functional assay.
As for B1, the “IC50, 5 nM PACAP38-induced human VPAC1-R mediated cAMP increase” value came out at 0.000541 µM.
Still for that read-out and setting: the same measure for B2: 0.000687 µM.
On the same count and under the same terms, the same measure for B3: 0.000292 µM; for B4: 0.00218 µM.
The same measure, in the same setting: then B5, with 0.00174 µM; and B6, with 0.00263 µM.

The target in another assay is T3, human PACAP27. Briefly: cell-based or functional assay.
For the molecule B1, the “IC50, 0.1 nM PACAP27-induced PAC1-R mediated cAMP increase” value is 0.109 nM.
The same measure, in the same setting: then B2, with 0.0458 nM; and B3, with 0.0604 nM; and B4, with 0.0741 nM.
With B5, the “IC50, 0.1 nM PACAP27-induced PAC1-R mediated cAMP increase” value turned out to be 0.09 nM.
Still for that read-out and setting: then B6, with 0.0957 nM.

For the next assay, the target named is T1, human PACAP38. As to the kind of experiment: cell-based or functional assay. The source holds these as a separate data set.
With B1, the “IC50, 0.1 nM PACAP38-induced PAC1-R mediated cAMP increase” value worked out at 0.0567 nM.
Same read-out and setting: the same measure for B2: 0.111 nM; for B3: 0.0511 nM; for B4: 0.0824 nM.
As for B5, the “IC50, 0.1 nM PACAP38-induced PAC1-R mediated cAMP increase” value was determined as 0.227 nM.
On the same count and under the same terms, the same measure for B6: 0.154 nM.

The next assay has as its target T1, human PACAP38. As to the kind of experiment: inhibition of 100 nM biotin-PACAP38 binding to PC-12 cells, TRF. On the procedure: To identify antibodies that block PACAP38 binding to PAC1-R-expressing cells, adherent PC-12 cells (ATCC, Manassas, Va.) expressing PAC1-R were used in a Europium-based PAC1-R expressing cells binding assay.
Antibody solutions were incubated with N-terminal biotinylated PACAP38 at 10× the final concentration (100 nM or 30 nM) for 1 hr, then added to PC-12 cells that were plated 24 hrs. prior in black clear bottom 96 well plates (COSTAR™, Corning Incorporated, Corning, N.Y.) and further incubated for 1 hr at room temperature. After three washes, the cells were incubated with 20 μl Europium-labeled streptavidin (PerkinElmer, Waltham, Mass.) for 1 hr at room temperature. Cells were washed three times, then 20 μl DELFIA® Enhancement solution (PerkinElmer, Waltham, Mass.) was added to each well and incubated for 15 minutes with gentle shaking. Plates were read (Time Resolved Fluorescence (“TRF”)) on SPECTRAMAX® (Molecular Devices, Sunnyvale, Calif.) plate reader.
FIGS. 14A-14BB are representative of the inhibition curves obtained by this method (results are shown for Ab1, Ab2, Ab3, Ab4, Ab5, Ab6, Ab7, Ab8, Ab9, Ab10, Ab11, Ab12, Ab13, Ab14, Ab15, Ab16, Ab17, Ab18, Ab19, Ab1.H, Ab10.H, Ab22, Ab23, Ab3.H, Ab4.H, Ab5.H, Ab9.H, and Ab12.H, respectively) wherein the PAC1-R expressing cells were PC-12 cells.
In the case of B1, the IC50 stood at 0.0246 µM.
Still for that read-out and setting: the same measure for B2: 0.022 µM.
On the same count and under the same terms, the same measure for B3: 0.0226 µM.
The molecule B4 gave an IC50 of 0.0531 µM.
On the same count and under the same terms, then B5, with 0.0172 µM; and B6, with 0.0179 µM.

The target in the next assay is T1, human PACAP38. Briefly: cell-based or functional assay. This is another data set of the same source.
For B1, the “IC50, 1 nM PACAP38-induced human VPAC2-R mediated cAMP increase” value amounted to 0.000265 µM.
On the same count and under the same terms, the same measure for B2: 0.000162 µM.
Still for that read-out and setting: then B3, with 0.000179 µM; and B4, with 0.000652 µM.
Same read-out and setting: the same measure for B5: 0.000667 µM.
Regarding B6, the “IC50, 1 nM PACAP38-induced human VPAC2-R mediated cAMP increase” value amounted to 0.00084 µM.
